Experimental data reported in US20100015637A1 (AbbVie / Abbott, published 2010).

What was measured:
[1] = molecular target: human PlGF-1 comprising amino acids 1-137 produced in human embryonic kidney cells (human) (UniProt P49763); test: Format 2 …, capture MAb264, detection Pb264; sFlt-1 153 pmol/L (ratio 5)
[2] = molecular target: human PlGF-1 comprising amino acids 1-137 produced in human embryonic kidney cells (human) (UniProt P49763); test: Format 1 …, capture 2-826-335, detection 1-255-713; sFlt-1 307 pmol/L (ratio 10)
[3] = molecular target: human PlGF-1 comprising amino acids 1-137 produced in human embryonic kidney cells (human) (UniProt P49763); test: Format 1 …, capture 2-826-335, detection 1-255-713; sFlt-1 1533 pmol/L (ratio 50)
[4] = molecular target: human PlGF-1 comprising amino acids 1-137 produced in human embryonic kidney cells (human) (UniProt P49763); test: Format 1 …, capture 2-826-335, detection 1-255-713; sFlt-1 9200 pmol/L (ratio 300)
[5] = molecular target: recombinant human PlGF-1 (comprising amino acids 1-131) expressed in E. coli (R&D Systems) (human) (UniProt P49763); test: … sandwich, capture MAb826, detection pAb264; antigen 15 pg/mL
[6] = molecular target: recombinant human PlGF-1 (comprising amino acids 1-131) expressed in E. coli (R&D Systems) (human) (UniProt P49763); test: … sandwich, capture MAb826, detection pAb264; antigen 250 pg/mL
[7] = molecular target: T1, CHO human PlGF-1 fragment (comprising amino acids 17-131; ATCC PTA-8540) (human, UniProt P49763 35-221); test: … sandwich, capture MAb826, detection pAb264; antigen 0 pg/mL (blank)
T1 sequence: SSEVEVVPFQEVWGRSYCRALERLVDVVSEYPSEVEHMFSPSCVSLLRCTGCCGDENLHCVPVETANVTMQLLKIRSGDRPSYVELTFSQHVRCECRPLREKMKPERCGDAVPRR

[8] = molecular target: T2, CHO human PlGF-1 comprising amino acids 1-137 (human PlGF-1-His (1-131), CHO 6305) (human, UniProt P49763 19-221, N-glycans at N21 (completely glycosylated) and N89 (partially glycosylated)); test: as above
T2 construct: Mature human PlGF-1 with 6xHis tag (137 amino acids); also called CHO (1-137)
T2 sequence: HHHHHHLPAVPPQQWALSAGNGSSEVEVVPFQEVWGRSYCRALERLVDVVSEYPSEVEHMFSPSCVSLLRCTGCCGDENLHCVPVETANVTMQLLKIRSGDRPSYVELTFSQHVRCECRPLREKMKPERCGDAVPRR

[9] = molecular target: T3, human PlGF-1 comprising amino acids 1-137 produced in human embryonic kidney cells (human, UniProt P49763 19-221); test: as above
T3 construct: Mature human PlGF-1 with 6xHis tag; also called HEK (1-137); full length HEK human PlGF-1 (1-137)
T3 sequence: T2 sequence

[10] = molecular target: T4, human PlGF-1 fragment (comprising amino acids 17-131) produced in human embryonic kidney cells (human, UniProt P49763 35-221); test: as above
T4 sequence: T1 sequence

[11] = molecular target: recombinant human PlGF-1 (comprising amino acids 1-131) expressed in E. coli (R&D Systems) (human) (UniProt P49763); test: … sandwich, capture MAb255, detection pAb264; antigen 15 pg/mL
[12] = molecular target: recombinant human PlGF-1 (comprising amino acids 1-131) expressed in E. coli (R&D Systems) (human) (UniProt P49763); test: … sandwich, capture MAb255, detection MAb826; antigen 60 pg/mL
[13] = molecular target: T1, CHO human PlGF-1 fragment (comprising …); test: … sandwich, capture MAb255, detection pAb264; antigen 60 pg/mL
[14] = molecular target: T2, CHO human PlGF-1 comprising amino acids …; test: as above
[15] = molecular target: T3, human PlGF-1 comprising amino acids …; test: as above
[16] = molecular target: T4, human PlGF-1 fragment (comprising amino …); test: as above
[17] = molecular target: T1, CHO human PlGF-1 fragment (comprising …); test: … sandwich, capture MAb255, detection MAb826; antigen 250 pg/mL
In short: (§1)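 In a sandwich immunoassay, human PlGF-1 antigen preparations, including recombinant forms expressed in CHO cells, were tested at 0 to 1500 pg/mL. Magnetic microparticles carried a monoclonal anti-human PlGF-1 capture antibody, attached by passive coating and EDAC cross-linking, and a second monoclonal anti-human PlGF-1 antibody labeled with acridinium ester served for detection. At each antigen level, the chemiluminescent signal was read in relative light units (RLU).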

[18] = molecular target: T3, human PlGF-1 comprising amino acids …; test: as above
In short: as §1

[19] = molecular target: T4, human PlGF-1 fragment (comprising amino …); test: as above
In short: as §1

native sFlt-1, isolated from human placental tissue (from UniProt P17948 27-687) (receptor)
% Inhibition [1]: 64.9% | PlGF-1 Measured [1]: 276 pg/mL | % Inhibition [2]: 80.7% | PlGF-1 Measured [2]: 197 pg/mL | % Inhibition [3]: 92.5% | PlGF-1 Measured [3]: 76.6 pg/mL | % Inhibition [4]: 95.9% | PlGF-1 Measured [4]: 42.1 pg/mL

B1: monoclonal antibody 2-826-335 (produced by murine hybridoma cell line 2-826-335, ATCC PTA-8539) (antibody, mouse IgG1, V domains shown)
VH: QVQLKQSGPGLVQPSQSLSITCTVSGFSLTTYGIHWVRQSPGKGLEWLGVMWSGGDTDYDAAFISRLSISKDNSKSQVFFKMNSLQANDTGIYYCARYRFYGMDYWGQGTSVTVSS
VL: AIQMTQSSSSFSVSLGDRVTITCKASEDIYNRFAWYQQKPGNAPRLLISGAASLEAGVPSRFSGSGSGQDYTLSITSLQTEDVATYYCQQYWSTPWTFGGGTKLEIKR
notes: also called MAb826
RLU [5]: 19600 RLU | RLU [6]: 231000 RLU | RLU [7]: 6680 RLU | RLU [8]: 6600 RLU | RLU [9]: 6530 RLU | RLU [10]: 6590 RLU

B2: monoclonal antibody 1-255-713 (produced by murine hybridoma cell line 1-255-713, ATCC PTA-8536) (antibody, mouse IgG2a, V domains shown)
VH: QVHLQQSGAELMKPGASVKISCKATGYTFSSYWIEWVKQRPGHGLEWIGEILPGSVSNNFNEKFKDKATLTADPSSNTAYIQVSSLTSEDSAVYYCARSTGFYYGGNYFDHWGQGTTLAVSS
VL: DVVMTQTPLSLPVSPGDQASISCRSSQSLVHSNGHTYLHWYLQKPGQSPKLLIYKVSNRFSGVPDRVSGSGSGTDFTLKISRVEAEDLGVYFCSQSTHVPPTFGGGTKLEIKR
notes: also called MAb255
RLU [11]: 47200 RLU | RLU [12]: 83200 RLU | RLU [13]: 81200 RLU | RLU [14]: 71600 RLU | RLU [15]: 165000 RLU | RLU [16]: 107000 RLU | RLU [17]: 144000 RLU | RLU [18]: 367000 RLU | RLU [19]: 207000 RLU
